Biological target: A. diaperinus cadherin-1 (AdCad1) (Alphitobius diaperinus)
Test: cell-based or functional assay

Cry3Bb toxin (from UniProt Q06117 64-652)
larval mortality on day 3, 100 ug/cm^2 Cry3Bb, larvae injected with AdCad1-dsRNA #1 (AdCad1 knocked down): 8% | larval mortality on day 3, 100 ug/cm^2 Cry3Bb, larvae injected with AdCad1-dsRNA #2 (AdCad1 knocked down): 11%

From patent publication US10787678
